Data from a protein production outcome set (Wang et al. 2014).

Assay: label from the status in PepcDB records
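Note: failed if final PepcDB status was selected cloned or expressed and not failed if soluble or beyond.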

Row | Sequence | protein production
1 | MNQNKITAGGLEFLVRFAAPTDRLKINDLMIDTARWLKESGSTQWSDILHGFDVHNIEQRIELGEVALFETEAGALAGAMIIRKTPSDWDTDLWEDLAIDKAYYLHRIMVSRAFSGISLSKQMIYFAEKLGIEMSVPFIRLDCIESNETLNQMYVRYGFQFSGKKNGFYLYQKELSQK | not failed
2 | MNQNWHATLIRHLLLLITVCLIGGLVSGYYGWSLAIGLALYLGWTLKQLLRLHDWLRNHQPDEAPPDGYGLWGEVFDSIYHLQRRDQRVRGRLQAVIDRVQESTAALRDAVIMLDSDGNLEWWNRAAETLLGFKTPQDGGQQVTNLVRHPLFKEYFEAENYLEPLEIPSPINDRMRVQLHITRYGNNEHLMLVRDVTRIHQLEQMRKDFVANVSHELRTPLTVITGYLETLLDNVEDVNPRWSRALQQMSQQGSRMQTLLNDLLLLAKLEATDYPSDNQPVAVDALLAAIKNDAQALSGPRNQRINLEAAPGVKLKGSESELRSAFSNLVFNAVKYTQDEGSIRIRWWADAQGAHLSVQDSGVGIDAKHLPRLTERFYRVDSSRASNTGGTGLGLAIVKHVLMRHRGKLEISSVPGHGSTFTCHFAPAQLANEKA | failed
3 | MNQPDIKGSCASEFTKVRDAFERNFVLRNEVGAAVAVWVDGDLVVNLWGGSADAGGTRPWQHDTLATVLSGTKALTATCVHQLVDRGELDLHAPVARYWPEFGQAGKQAITLAMVMSHRSGAIGPRGRLGWEQVADWDFVCEQLAAAEPWWQPGAAQGYHMTTFGFILGEVFRRVTGRTVGQYLRTEIAEPLGADVHIGLHPGEQLRCADLVDKPHIRQLLADVQAPGYPTSLNEHPKAALSVSMGFAPDDELGSNDLQLWRQIEFPGTNGQVSALGLATFYNGLAQEKLLSREHMELVRVSQGGFDTDLVLGPRVADHGWGLGYMLNQRGVNGPNPRIFGHGGLGGSFGFVDLEHRIGYAYVMNRFDATKANADPRSVVLSNEVYAALGVNRS | failed
4 | MNQQLLAKTFVELADNLVADFDLIDFLRLLTDRCVGMLDASAAGVLLADRNGELRVMAASDEQVRLLELFQLQNDEGPCLDCFRTGAPVTVPDLSAVTARWPRFAVQARRSGFGAVQALPMRLRDEVVGALNLFRATPGPFDPAATPLAQALADVATISLLQQRTAHRSTVLNEQLQTALNSRVLIEQAKGKLAERQGVDMERAFTALRTYARAHNRRLSDVARAFIDNSEPLTGLGS | failed
5 | MNRFSRARSYISLVLFRKSSYVTSHIPWNQCFYTSLKSSLKPASVSVSSVHCYSSRSKTAKSKMSKSSVSVSDSDKEKDAFFVVRKGDIVGIYKDLIDCQAQVGSSVYDPPVSVYKGYSLLKDTEECLSTVGLKKPLYVFRALDLKEDMFGALTPCLFQDQLPSASMSVEKLAELEPSADTSYETCIIEFDGASKGNPGLSGAAAVLKTEDGSLIFKMRQGLGIATNNAAEYHGLILGLKHAIEKGYTKIKVKTDSKLVCMQMKGQWKVNHEVLSKLHKEAKQLSDKCLSFEISHVLRSLNSDADEQANMAARLSEGEVEVA | failed
6 | MNRIKEVLEEKGIKQTWLAEKLGKSFSIVNSYVCNRRQPSLDILFEIAKILEVDVRVLIGTKENRQKSK | not failed
7 | MNRLREALKERGITQTELSTRLGKSFNMVNLYVANKHQPSIPTLFQIAEILDMDVRDLLVSNKQQNK | failed
8 | MNRLRTSLTALAAAITLSGLANAATRYEELANQPFEKGFPTETAARNLIDELVFQRAVQSYLWALPAINIWSMKEASEKEFGAGYNILPTWKKRINAKTLVTTPNSDLVYAMSYLDLQKYGPLVVEAPPGVQGMFDDFFQRPIVGPTIDGKTWRGDVGLAGPDKGKGGTYVLLPPDYKGPEPTEGYVYRSRTNNVFLFWRTFFKDPKDLSVPVAEVERTKIYPLGKKDEALPMQFPDATGAPINMLFPEDGRYFDMLSRFIDAEAVDPADMDMRGFLHTLGIEKGKPFAPDAQRRKLLDEAARTAFKMSKVVTSHLLLKEPGGLYYKDRQYVNTFAGENTEFQSSGSFTNLEQRVAFFTSAYSDSPGMVMNMVGAGAKYPATTRDADGKFLDGAQTYKLNLPANVPAALFWSVTAYDNLTASGLDNGQPFPSLNQMDKPVQNSDGSTDIYFGPKSPGEGKNWIKTVPDKGFLVIVRLYGPKQAFFDQSWKPSDLLKQ | failed
9 | MNRRDFLQFGLRGIVVAGLGKGFYNTTSEQVEIVRTSVKIRNLPAALQGLKIGLLTDLHASFVVSSETIRSAGRLLMAEKPDLIVMTGDYISGSTRFLSGSVGQFKKEYLSKCIDALSGLKAPLGIYGVLGNHDFWSGPESVKAICEAFTRQMGMVWLRNSSVEIRRGRGSLHLLGVDDYWEPSCSLAAACKGVDTDGIKILLSHNPDINDEIFLLRERIDLVLSGHTHGGQVVVPFLGQPVMPSKFGQKYRAGLVRDGDRQTYISRGVGCLLAPIRLNCPPEATVLTLTLEHHHHHH | not failed
10 | MNRSVRLITIALLLAALASLTYAVVRPFLVSIGWAVFVSYVAWPLHAWSQRRFEGRKTLSALVTTALLGSVVLAPLIWLAVLLQGEVSELIRSLPDWLEQKPRLPDFVSHIPYFGNELQAVVDQFEDLHGLLKRHAPEWVRRLGSPVLGIMTTLVQNAAVLFMTLFTLFFLFRDGLQLATDVRRVFTRVLGERLKGYFATIEATVKAVLYGIVLTALAQGFLAGLGYWIVGVKAPIVLGIATTLIAMIPFGTPFAWGSVSIWLLLQGETWAGVSLALWGTLVISWIDNIIRPLVISSATHIPFVLVMFGVLGGLASFGFIGLVLGPVILAMALAVWREWLQQVREAGLRGEDGSGTGPGERR | failed
11 | MNRTAMRASQKDFENSMNQVKLLKKDPGNEVKLKLYALYKQATEGPCNMPKPGVFDLINKAKWDAWNALGSLPKEAARQNYVDLVSSLSPSLESSSQVEPGTD | not failed
12 | MNRTMSSINVLSLPVFNRDASGYDALRRGLIPCFDAFYGTALDLIDDWRDAEKLRVLDLGAGTGLFTAMLLTRHPDAQIHLIDASEKMLEQARKRFDGNPAITYAVADMANTELGGPWDLIISALAIHHLEDIGKKHLFGEIRGALSEGGLFVNVEQVLGHDPEVEARYARTWLQQVRRLGVAEVEIAKAHERMSHDRCSPLENQLQWMRDTGFCEIDCSFKAWRFAVLSGRR | failed
13 | MNSAARNAPAGSQPVKAELWKRVYSRVGSYWKGLVLAVLLMAGAAATQPTLAVIMKPLLDDGFSGAKPHYVWFLPLAVVGLILLRGICNFFSDYLLAWVANNVLRGIRGEMFERLLGLPDADFKRGDTGRLLNRFTIDAGNVTGYATDVITVLVRETLVVIALIGVLLYMSWALTLIILVMLPVSVGIARAFTRRLRRINRETVNMNAELTRVVSEGIDGQRVIKLFDGYDAERRRFDFVNSRLRRFAMRSATADAALTPLTQVCISVAVGAVIAVALSQANSGALTVGSFASFMAALAQIFDPIKRLTNLAGKMQKMLVAAESVFTLVDQTPEADAGTRALPEPVRGKVEFRAVSHRFPDADRDTVSAVSFLVEPGQTVALVGRSGSGKTTLVNMLPRFVLPDGGDILFDDVPIQDLTLRSLRSHLSLVSQDVVLFDDTIAANVGYGAGGTVDDARVRDALAAANLLEFVDGLPLGIHTPVGQNAARLSGGQRQRLAIARALIKNAPVLILDEATSALDNESERQVQASLERLMRGRTTLVIAHRLSTVQNADRIIVLDAGKIVEHGPHSELLAANGLYASLYNMQFRED | failed
14 | MNSDGSDNFELVKKSYGRNFSGISGCAWSPDGSRIAYISSDHNGSDRLVTLNPDGSNEQIVASFAEISALAWAPDSSGMAFNAAYSEDGQTGIYLADLESSEPVFLVRGEIRQQIQSWQSEVWSPDGSRILYSSNENGNSDTNENGNSDIYSVNTDGSEKIQLTDDNSKDYSPCFSPDGSKIIFISDRTGHSSIWIMSSNGDKEEELTEGFEGIHDFSWNPNGQKIAFSSDSNSYIQEIDYSESGDEDSQDDSSSDDSDNDTEVNPEYLHMEILSPDLNFAASQGTPELITVRITNNSGSPVQSSGFKFIKANFSNGDPELQLFDDGTHEDITASDGIFSNQWIPVNTTGLPLTLCILWASADHESLGDAEQIISGTISRKPIPSDLVIENISWSPADPYVNDNITFSITSANRGSGPSEACKVKCYINGNEAYSYSLPELEARSSTSIIFSWIPTAPGNIDVKAVVDEENQVSESVEENNEKSVSFSVKSLTPSTSSGKSGGKSSSSGGGGGGGGSPEPASNVRIKELSQQYITSGKYAKFAFPRNATCVTHVAFNSRRTAGKTTTIVEMLKNKSTRVPDLPAGKIYENVNIWVGNKGTADPENIENAVVGFRVEKSWITLNDVDPASVRLWRLSSGEWEELSIRQSGEDDRYSYFEAQTEGFSHFVITAPSGENETIENALKSSIVPPVRSSAEVMEELFGKLSGKQNADFPVISAMSVNESGSEPEAPSTAGHAADRITGRGIIKVLVVIALLSVTGFLGSLILRKQN | failed
15 | MNSEIFRIFRKKYSEEIRNPPMNATTLPEALKLMQYIGDAIGTIRDPQELFRTVTDKLRLLFAFDSAVIITIDRERREASVFFEMLRFELPEQLRHQTRSIAGTWLEGHLDDRTVTVASIARDIPSFGADGAPLLWTLHELGMRQIVLSPLRSGGRVIGFLSFVSAEEKLWSDGDKSLLSGVSSSIAIAVSNALAYEELRQRE | failed
16 | MNSFAEKLMVGATAPSASVELPLGDRVRCVLVHEFLSASECEALIEATEQCGFASAGSDYPSSYRDNDRIVADDPAMAGRLFERLKHCASRMPKLGTVIDEDGWRPVGINERLRFCRYRPGTQFRAHQDGVHHRQRQQSRLTFMIYLNDDAFSGGETLFFEGRSAAMSNRDSTLRLRPRKGSLIVFDHTLWHAGALVDAGQKYVMRSDLMYEPQQSLQVDGPFQPGHRGYVWALADLGDRGFASAGRDATIRLWDHEGRCLGQLDGHTQSILGLVDVAPGELVSHSRDRTVRHWSLATGKSTLVGTSDSAVLSSARLGADRLVTGAADGCLTVWNLATGAADRRQAHACWVWAIAPTGDGSFASASEDGTVRLWQPEERDCVQVLDLGRPLRMLASWIDADGSVTLAVGDLDGAVHLLATEPRLALLDCLAAHDGPVRRVRFEARHMLLTCGEDGLVRRWNLPSRQGAIIGSHDNFATDVLPTRAGGWISCGYDGRILVHGDKG | failed
17 | MNSFSSKNPEGCSLKVLIKYLLKLSVVPFLIGLGGFIVFVSLEILYQLSDLIVRHRVGIEKLFLMLYYYLPYFVAMGVPVGVLLAIFWTFSRLSEERELMAIQVHGISQKNLIVPFLILGALLSIAVFFLSDQIVPEYQSKAEEAMSKYVLKKPEVFVVENVISKIGDDQYFYVEKYDERTSTMWNVVIFRYGHEETIVTAKRVQKKGNDWYLFDGNYYTVDKDGFLKLDVHFSEMKLDITEDIEKLLRVGKTPKEMTGKELKEKIEFFKKVGVKPSPWVVELHSRYANSLTPIVIVLVGVPLSLLFQLRSKSWGVIFTFVLVVLYQGSGAWLSAMGKENLLNPVLAPWIPNIVFTIVGTLLFILLDTFFAYRITEFLSRLFFVAFIFTVSSLFSSQVVIVSDRMEKFPEEMVFHGSVEIAYKDMTVQASEATIQLTEEGKAKKLEASGGVIYRKADTILMGEHLIFYLENEKSVLTHIRGSTVLEIEKEKKKIYLSGEDLTSEGSRTIVDMGSISTCSETPPHYKLKARYIEIKENDYLLAKDVVFYLLEIPLFYQPIFFTSLSDKPQPFSVEVGVGNNPHLKTSYNVSYPSGLLYFSTKSVLSGGLSKELNWNHKMGSWSLNLDYKESTSHSVLVKIFDSKNTFLFSQKNEERIHQFERKEKILNGSLNVVLRKESDGEDSYILPRVTVKKVSVKTGVGTFSVDSFNHETRIEDQEKRNSGSVSLSFRSVPFLLFQSVSVSTTGKYLFENQNLDERTSYLKTDSIWDFQNLSLGKFLVLDDKIYAGVYRSNEDGYRVGNLFTTTLRVPLGPFSFESYYKLFTVSGENLRKFSQNESKNEVDLKVSFSYENFKSSLETTYDFLEKEFSDPYLKTSYSFKTGDITHTVDSTTRFVLDEISRSYTTWNFQQRMGAFLNRFYFTYYYREPHVKYVEDQMRIYGKNFLFMENPRITTYTKLSVDPFELDEFWIRGTFKKGESTHSLKMSYSSDNLEFSYQTKNGDPALEISFSLKDWNVEKFSLSVEKALHCLGTKISTSFGRNFTLESFSILFFIRDFPNSGIGFDTEEGIGLNVF | failed
